From the supplement of paper PMC12764529 come the findings set out here.

± gives the half width of the 95% confidence interval.

A short description of the data set: folding stability dG unfold (combined trypsin and chymotrypsin); higher = more stable. The procedure:
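Folding stability of de novo designed mini-proteins (<80 aa, no Cys; designed by TrROS, TrMRF, ProteinMPNN and the joint model) was measured by cDNA display proteolysis with trypsin and chymotrypsin. Each protease was used at 11 concentrations in a threefold dilution series plus a no-protease condition. K50 was inferred by Bayesian fitting of sequencing counts, and dG unfold was derived against a sequence-predicted unfolded-state K50 (Tsuboyama et al. method). Sequences shown include variable-length N-terminal GS-type padding (SAGGSAGG...) inside a display construct carrying a PA tag. Rows were kept only if the AF2 dimer inter-PAE was >15, to exclude likely homo-oligomers.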
With “SAGGSAGGSAGGWYRIKWPNGHEYPVKVDEIDPDGNIKVEPPNDEEHKFPADGMKIEPLPSAGGSAGGSAGG [r7_823_TrROS]”, the “folding stability dG unfold” value is < -1 kcal/mol.
The value for “SAGGSAGGSAGKITIKPEGQDGNGMYYEIRLPDNGKTIQVPFPSPEDADRRAKKILKELFSAGGSAGGSAGG [r11_848_TrROS]” was < -1 kcal/mol; that for “SAGGSAGGSAGKMVEVRIEVDVPDADGRPVRVTFTAPLPLHPDGRIDVPAGRVRRVEVRGSAGGSAGGSAGG [r11_664_TrMRF]” was < -1 kcal/mol.
In the case of “SAGGSAGGSAGKNGQPEKVEPQPKIKIRVEDNGKEFETPEQAEELKDELAKKGYKIKVERSAGGSAGGSAGG [r17_289_TrROS]” it was < -1 kcal/mol.
The value for “SAGGSAGGSAGKPYRIKIEFYPPGNGQPMEHTFPVKSPEEAVNNLEKSFPNYQIRVDVVESAGGSAGGSAGG [r17_428_TrROS]” was < -1 kcal/mol.
As for “SAGGSAGGSAGMEIKPVKVKAIDPENPKPVAEFEVEVLPDKIIIPKEFAEKVPEDHVEVESAGGSAGGSAGG [r11_725_TrMRF]”, the “folding stability dG unfold” value is < -1 kcal/mol.
In the case of “SAGGSAGGSAGMEIKYVPEEGLIEVVEKTPKKLPLYSPRYGLEYETKVTTIPPGELDKPLSAGGSAGGSAGG [r11_531_JUSTAS]” it was < -1 kcal/mol.
The value for “SAGGSAGGSAGMIVRPVTVTIIDPTNSTPVKTFEALELPDELVIPEEVAKQFSPENVLVRSAGGSAGGSAGG [r11_725_JUSTAS]” was < -1 kcal/mol; that for “SAGGSAGGSAGMKIKLPNIPGAEVEIEKDPEVPDLYKIKIKNKETKEEIEITLPKEALKPSAGGSAGGSAGG [r17_341_TrROS_Hall]” was < -1 kcal/mol.
The value for “SAGGSAGGSAGMKVEPKEDPVVDKSGKPKPITKIYVYVPEPLREEALKEAEENGEEVVLESAGGSAGGSAGG [r17_114_JUSTAS]” was < -1 kcal/mol; that for “SAGGSAGGSAGMKVREITGPPDDAKELLDENPDGITSIAIEPHPKNGQYRITFFDQGPPKSAGGSAGGSAGG [r17_79_TrROS]” was < -1 kcal/mol.
In the case of “SAGGSAGGSAGMPVTESTVTTPTGGLRVTYFPGTNLIELLPVEDGEPRPRLFNSEEALERLSAGGSAGGSAG [r3_426_JUSTAS]”, the “folding stability dG unfold” value is < -1 kcal/mol.
The value for “SAGGSAGGSAGMSTTIEITDPNLSKEEIKKRIREELGPDVKVTSITEETPDTLKATIVKKSAGGSAGGSAGG [r11_580_JUSTAS]” was < -1 kcal/mol; that for “SAGGSAGGSAGMTLEELQKEGYKVEVIRYPDSPHWYVEIEYPDPDGKKKERTIPVDDIKPSAGGSAGGSAGG [r17_311_TrROS]” was < -1 kcal/mol; that for “SAGGSAGGSAGMTVKEFTTEEEAKEAIEKAPKDVPLLLILKKPESEEEKVILYTGDKVIEEESAGGSAGGSA [r18_407_JUSTAS]” was < -1 kcal/mol.
On to “SAGGSAGGSAGMVTTSETITVTVTLPTGPTETITVPVTTTVPVVPVSPEVAAADPAAVAALLSAGGSAGGSA [r18_114_JUSTAS]”, for which the “folding stability dG unfold” value was < -1 kcal/mol.
In the case of “SAGGSAGGSAGNEVRVDPDTNLLLVELSNGGRARVLLNEGVIYIEPEGTTFEDIEIEPAASAGGSAGGSAGG [r17_174_TrMRF]”, the “folding stability dG unfold” value is < -1 kcal/mol.
In the case of “SAGGSAGGSAGNKPIMIKAEFPGNGREVEFPIRSPEQAKEFAKRLANQPGFPIKDVDIYPSAGGSAGGSAGG [r11_951_TrROS]” it was < -1 kcal/mol.
The value for “SAGGSAGGSAGNMEPVPTFELPHDDGRPFTIEVYKDPPMIRVEFPGKPRTMPAEEIKKLISAGGSAGGSAGG [r11_370_TrROS]” was < -1 kcal/mol; that for “SAGGSAGGSAGPESRTITLEDPGSLEEAIERALATLPPDTTVTVTFGDEPVELNAATLRALSAGGSAGGSAG [r3_50_JUSTAS]” was < -1 kcal/mol.
In the case of “SAGGSAGGSAGPKPVLLTIEVEAKPDEAEAVAKEIYEKEFPEAKDVTVETFPEKGTFRVTFGSAGGSAGGSA [r18_390_TrMRF]” it was < -1 kcal/mol.
On to “SAGGSAGGSAGPNDKWKMEMEIEHSIPIEPGDTVRSPDTGEPIKPGKQVSIFRMYMEPAPSAGGSAGGSAGG [r11_793_TrROS]”, for which the “folding stability dG unfold” value is < -1 kcal/mol.
The value for “SAGGSAGGSAGPPERTLSAIIAPNGEILNPIPVPEGAKVTVEPIPETGYYVATVTVPADVSAGGSAGGSAGG [r11_32_TrMRF]” was < -1 kcal/mol; that for “SAGGSAGGSAGRLPPGMKIRIWHRRDGKPRRREFEIPPGMPSIEDAAKEHPPIESVKIERSAGGSAGGSAGG [r11_157_TrROS]” was < -1 kcal/mol; that for “SAGGSAGGSAGSTVKITVKGKTITVPKGAKVKLKNGKTFKAGESLESLSPEEIVKVEKVPSAGGSAGGSAGG [r17_511_TrROS_Hall]” was < -1 kcal/mol.
The value for “SAGGSAGGSAGTTLLETEELPGPVRVTVERYKLPDGTLRVRTTEIDPSTGARHPREELVESAGGSAGGSAGG [r11_727_JUSTAS]” was < -1 kcal/mol.
The value for “SAGGSAGGSAGVIPFDSPEDAERAIEEAFRNGDPVTIHRRNPDGKHQTIPFKIKLPKNDPSAGGSAGGSAGG [r17_462_TrROS]” was < -1 kcal/mol; that for “SAGGSAGGSAGVTDPNSSKPVPSSYVVVTVRGPEKESYYRVPPSEAAAFAAARGVEVILESAGGSAGGSAGG [r17_109_JUSTAS]” was < -1 kcal/mol.
Take “SAGGSAGGSAKKIEIEPMPNGWTVRIKGNDGKKREIPIPNPNQSISDIAKRAEDNGIDDVEISAGGSAGGSA [r18_83_TrROS]”: the “folding stability dG unfold” value was < -1 kcal/mol.
In the case of “SAGGSAGGSALKINKLLKEGYEVEVTPPDGKKYVLKKGDSAKKPKEKFNLPENAKIKIKPLSAGGSAGGSAG [r3_216_TrMRF]” it was < -1 kcal/mol.
Regarding “SAGGSAGGSAMEEYEIRVPDKPITIHRSPDGNYSLQYFDNKKTETIPADDLDDLPPGDLFRSAGGSAGGSAG [r3_256_TrROS]”, the “folding stability dG unfold” value is < -1 kcal/mol.
Regarding “SAGGSAGGSAMWVRDIADELRKEGKPVKIEMRNPNGKEKEYTIKPGEPLPPGWDIEKIEYKSAGGSAGGSAG [r3_421_TrROS]”, the “folding stability dG unfold” value is < -1 kcal/mol.
In the case of “SAGGSAGGSANKDDKKKEQRKQRVESKLPIYDPGNGKPWDIEVTGPVDDPEDAVDWLLDWFSAGGSAGGSAG [r3_271_TrROS]”, the “folding stability dG unfold” value is < -1 kcal/mol.
The value for “SAGGSAGGSANPMPVRFQIEWKNPKDGKKQKIPITGTIPDGNGKKHSINELLKNLPGFKIKPSAGGSAGGSA [r18_267_TrROS]” was < -1 kcal/mol; that for “SAGGSAGGSANVEVHPNPDGHVMVKIEMRMYRYDPDGKPKGPVEIKRSIHVDSPEEAKEFFSAGGSAGGSAG [r3_232_TrROS]” was < -1 kcal/mol.
With “SAGGSAGGSAPGQKFPIKEVYWNDGRLAIKVEDNGEEQIIPVGAKIEDDDDGEIKIKLLPPPSAGGSAGGSA [r18_468_TrROS]”, the “folding stability dG unfold” value is < -1 kcal/mol.
As for “SAGGSAGGSAPLVENPVPLYVPEEEAVPLAEEIRKKLTKGGLKKIVFEVVPPEEAGIPPDEPLSAGGSAGGS [r12_93_JUSTAS]”, the “folding stability dG unfold” value was < -1 kcal/mol.
In the case of “SAGGSAGGSAPNQRREVPFYIYFPDDGKMFPFKQEKDPDPPKLKLKLPPEDFPPIEIMPGGSAGGSAGGSAG [r3_454_TrROS]” it was < -1 kcal/mol; in that of “SAGGSAGGSARVTVTPLPDDRVAVSVERTLYRRDADGNPLGPVRIQASVVVDSLEDAAELASAGGSAGGSAG [r3_232_TrMRF]”, < -1 kcal/mol.
With “SAGGSAGGSASPVQRILARLPSGEPFEAVYDPSTGTIDVLGEGKPSTIPAGTPVEVLEVRLESAGGSAGGSA [r18_144_JUSTAS]”, the “folding stability dG unfold” value was < -1 kcal/mol.
The value for “SAGGSAGGSAVIVIPASVVEEKKEKIELKLEDETEYEVEVTTEKVGDEPIAVLKLIPKNIPSSAGGSAGGSA [r18_447_JUSTAS]” was < -1 kcal/mol; that for “SAGGSAGGSAVVTLPDGRLLITEKVEEEVVFPDRDRTSKRVTTKTTLIDPATGTVLPASLLSAGGSAGGSAG [r3_394_JUSTAS]” was < -1 kcal/mol.
In the case of “SAGGSAGGSDINVRVIELPDEDGTPYLLLEADNPEGLSDEIAAAFPPDWDVRTDDDRVWVLRRSAGGSAGGS [r20_189_TrMRF]” it was < -1 kcal/mol; in that of “SAGGSAGGSEGKEVVVVPAVGVPPEAVRRALEPLGIRTRVVPVPPVRPFRAADPGRVYYTPVGSAGGSAGGS [r12_80_TrMRF]”, < -1 kcal/mol.
The value for “SAGGSAGGSEMKIDRIKIHDFDPDNGNYFVRIRNNGGPKHTFPVKNADELKEHLPGVKVEVIKSAGGSAGGS [r12_403_TrROS]” was < -1 kcal/mol; that for “SAGGSAGGSEPVPLKVKARFGDPGEEFEADIDIPKEALEGEALTPEQIKEALEALFPDVEIEGSAGGSAGGS [r20_221_TrMRF]” was < -1 kcal/mol.
For “SAGGSAGGSGAFTADNDGGKVYSARLVPLPPGDRPVAVGLDVPVDKPVLVAVLPDRTVVVPLGSAGGSAGGS [r12_994_TrMRF]”, the “folding stability dG unfold” value was < -1 kcal/mol.
For the sequence “SAGGSAGGSGFTVLEKDPSTGKVLVRLPPSLVEDVRRLPDVSPVAEEPDSVLLERTIPPGALASAGGSAGGS [r12_694_JUSTAS]”, the “folding stability dG unfold” value was < -1 kcal/mol.
For the sequence “SAGGSAGGSGMTVEERTSPDGTRVEVYLGPGSVVREESPEGVVTVRTLTDGRVEREEVVPVPASAGGSAGGS [r12_451_JUSTAS]”, the “folding stability dG unfold” value is < -1 kcal/mol.
In the case of “SAGGSAGGSGPRAEELVVVNAPPGYRIPTPDGVPVTVPADAPNVLVRVTYGPGSSSVTVELVQSAGGSAGGS [r12_338_JUSTAS]” it was < -1 kcal/mol; in that of “SAGGSAGGSGSPSRPSPVLKFTFPKDPKPVTVPIPSGDPAAAAAAAAALEAAHPDTPVAVEAASAGGSAGGS [r12_601_JUSTAS]”, < -1 kcal/mol; in that of “SAGGSAGGSGVKAILDALPPDYTVTVEEEPSGDSYTITVTHPDGASPTLRIDGGGRGELRKALSAGGSAGGS [r12_174_TrMRF]”, -0.845 ± 0.74 kcal/mol.
The value for “SAGGSAGGSKDILANFPPGWKIEEEPNPNGMTRIDIKNPNGNEHRMEFPVNGKPIKFTIKPPESAGGSAGGS [r20_50_TrROS]” was < -1 kcal/mol.
